For assay [1], the target named is pIgR expressed on transfected MDCK cells. Briefly: cell-based or functional assay.
Assay [2] has as its target pIgR Domain 6 GST (D6-GST) fusion protein, species not stated (Schistosoma japonica) [GST: P08515]. Nature of the assay: SPR BIAcore, 1:1 Langmuir global fit 62.5-1000 nM; ligand not named.

pIgR Domain 6 GST (D6-GST) fusion protein, species not stated (Schistosoma japonica) [GST: P08515], sequence (P08515 whole entry, the tested form may be a part): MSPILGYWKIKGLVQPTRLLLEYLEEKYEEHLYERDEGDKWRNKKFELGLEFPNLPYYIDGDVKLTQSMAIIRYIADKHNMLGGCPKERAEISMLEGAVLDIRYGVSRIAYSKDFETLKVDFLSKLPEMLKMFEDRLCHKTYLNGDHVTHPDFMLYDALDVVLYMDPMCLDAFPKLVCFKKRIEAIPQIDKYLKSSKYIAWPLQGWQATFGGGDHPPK

B1: sFv5AF (scFv)
scFv: DYKAKQVQLVQSGGGVVQPGRSLRLSCAASGFTFSSYAMHWVRQAPGKGLEWVSAISGSGGSTYYADSVKGRFTISRDNAKNSLYLQMNSLRAEDTAVYYCARDTRGYFDLWGRGTLVTVSSGGGGSGGGGSGGGGSSELTQDPAMSVALGQTVRITCQGDSLRKYHASWYQQRPRQAPRLVVYGKNERPSGIPERFSGSTSGDTASLTISGLQAEDEADYYCHSRDSNADLVVFGGGTKVTVLGAAAEQKLISEEDLNGAAHHHHHH
As a reminder, the Kd is a measure of binding affinity in units of concentration. Read a low Kd as tighter binding. As a reminder, the koff is the rate constant with which the complex falls apart. Low readings indicate a long-lived complex, high ones a short-lived complex. A word on the kon: it is a measure of how fast the partners come together. High values mean fast association, low ones slow association. The molecule B1 showed a transcytosis on pIgR expressing MDCK cells overnight in assay [1] of 2%. In assay [2], this molecule showed a Ka of 4.47e+06 M⁻¹, a Kd of 224 nM, a koff of 0.00464 s⁻¹ and a kon of 27100 M⁻¹ s⁻¹.

(Values after patent US20060099150A1.)
